Experimental data from patent publication US9719113B2 (priority 2014, dated 2017).

B1: nahG^opt: salicylate 1-monoxygenase (SMO) from P. putida DOT-T1E, encoded by codon-optimized gene nahG^opt (protein, listed as Escherichia coli)
chain: MQNSTSALNVSIIGGGIAGVALALDLCRHAHLNVQLFEAAPAFGEVGAGVSFGANAVRAIAGLGIAEPYGKIADSNPAPWQDIWFEWRNGRDAKYLGCSVAEGVGQSSVHRADFLDALASQLPDGIAQFGKRAQRVEQDGEQVRVTFTDGSEHRCDLLIGADGIKSSIRDHVLQGLNQPLASPRFSGTCAYRGLIDSQQLREAYRARGVDEHLIDVPQMYLGLDGHILTFPVKQGRLINVVAFISDRSQPNPVWPSDTPWVRNATQAEMLAAFEGWDDAAQVLLECIPTPSLWALHDLAELPGYVHGRVGLIGDAAHAMLPHQGAGAGQGLEDAWLLARLLEDPKVLDKRPQAVLDAYDAVRRPRACRVQRTSFEAGELYEFRDPAVLADEERLGKVLAERFDWLWNHDMQEDLLQARELLGLRAQAA

Columns and labels:
[1] = test system: QH4 strain; conditions: SA added to cell cultures at 0-1000 mg/L; QH4 cells
Text: All data points are reported as mean±s.d. from three independent experiments. […] All data points are reported as mean±s.d. from two independent experiments.

[2] = Screening SMOs in vivo (conversion of SA to catechol by whole cells); format: cell-based; conditions: E. coli BW25113 carrying pZE12-luc expression vector, 2 mM SA, 37° C., catechol formation rate
Protocol: To evaluate the activity of enzymes converting SA to catechol, E. coli BW25113 was transformed with the expression vectors pZE-ppbenABCD, pZE-paantABC, pZE-pfantABC and pZE-NahG, separately. The resultant transformants were inoculated in 3 ml LB liquid medium containing 100 μg/ml of ampicillin and grown aerobically at 37° C. The overnight cultures were inoculated into 20 ml fresh LB medium and left to grow at 37° C. till OD600 reached 0.6 and then induced with 0.25 mM of IPTG at 37° C. for additional 3 h. Then the cells were harvested, and re-suspended in M9Y medium (OD600=2.1-2.7). SA was added into the cell suspension to a final concentration of 2 mM. The flasks were incubated with shaking at 37° C. for 10 min for the SMO encoded by nahG^opt and 1 h for ppBenABCD, paAntABC, and pfAntABC. Samples were taken by removing cell pellets and the product (catechol) concentrations were measured with HPLC. The in vivo activity was expressed as μM/min/OD.
Following the reconstitution and optimization of an SA biosynthetic pathway, our subsequent effort was focused on constructing the SA degradation pathway. SMO catalyzes the first enzymatic step of SA degradation, and thus it is of great importance to have an efficient SMO available for the pathway assembly. […] A putative SMO (encoded by nahG) was identified from the genome of P. putida DOT-T1E. […]

[3] = In vitro SMO enzyme assay; format: biochemical, P. putida DOT-T1E; conditions: purified His-tagged enzyme 0.97 nM
Protocol: (A) Kinetic parameters of the SMO. The Km and Vmax values were estimated with OriginPro8 through non-linear regression of the Michaelis-Menten equation. The protein concentration [E] of the SMO in the reaction systems was 0.97 nM. The kcat value was calculated according to the formula kcat=Vmax/[E]. […] (B) Conversion of SA to MA using the wild type E. coli strain carrying pZE-NC. […] Error bars are defined as s.d.
To express and purify the enzyme, E. coli BL21 Star (DE3) was transformed with the expression plasmid pET-NahG. A fresh transformant was inoculated in 3 ml LB medium containing 100 μg/ml of ampicillin and grown aerobically at 37° C. Overnight cultures were inoculated into 50 ml fresh LB medium and left to grow at 37° C. till OD600 reached 0.6 and then induced at 30° C. with 0.5 mM IPTG for another 3 h. Cells were then harvested and lysed by French Press. The recombinant protein with an N-terminal multi-histidine tag was purified using His-Spin protein miniprep kit (ZYMO […]). The enzyme concentration was measured using BCA kit (Pierce Chemicals). The standard enzyme assay was performed by making an assay mixture containing 500 μM NADH, 10 μM FAD, 0.97 nM purified enzyme, and SA as the substrate. The final volume was adjusted to 1 ml with Kpi buffer (20 mM, pH=7.0). […] The reaction rates were calculated by measuring the formation of catechol via HPLC. […]

| Molecule | SA concentration that completely inhibited the cell proliferation [1] [mg/L] | In vivo activity [2] [μM/min/OD] | In vivo activity ([2]; listed as SMO encoded by nahG^opt) [μM/min/OD] | Km ([3]; SA 0 to 100 μM, 500 μM NADH, 10 μM FAD, pH 7.0, 37° C.) [µM] | kcat ([3]; substrate SA, kcat=Vmax/[E]) [s⁻¹] |
| --- | --- | --- | --- | --- | --- |
| O=C(O)c1ccccc1O [SA, salicylic acid] | 1000 |  |  |  |  |
| B1 |  | 54.78 ± 1.65 | 54.78 | 4.37 | 96.56 |
